Results reported in patent WO2018225033A1.

Columns and labels:
FcyR = assay: cell-based or functional assay
[1] = biological target: rabbit Fc-tagged recombinant extracellular human ICOS (human) (UniProt Q9Y6W8); assay: SPR, Biacore T200, 1:1 kinetics model, rabbit Fc-tagged extracellular human ICOS
[2] = biological target: rabbit Fc-tagged recombinant extracellular human ICOS (human) (UniProt Q9Y6W8); assay: SPR, Biacore; reference is human ICOS-L binding to dimeric human ICOS (FIG. 15B)

Chain of UniProt Q9Y6W8 (Q9Y6W8 21-140): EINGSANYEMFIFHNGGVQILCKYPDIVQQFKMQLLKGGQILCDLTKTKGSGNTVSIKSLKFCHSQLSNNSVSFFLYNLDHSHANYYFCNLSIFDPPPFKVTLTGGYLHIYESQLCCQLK

IFN-γ induction in activated human PBMC assay (FcyR): > 2 fold | IFN-γ induction in modified mixed lymphocyte reaction (FcyR): > 2 fold | Kd [1]: 1.34 nM | fold higher affinity than the ICOS-L/ICOS interaction [2]: 17 fold
B1: H2L5 IgG4PE (antibody, V domains shown)
VH: QVQLVQSGAEVKKPGSSVKVSCKASGYTFTDYAMHWVRQAPGQGLEWMGLISIYSDHTNYNQKFQGRVTITADKSTSTAYMELSSLRSEDTAVYYCGRNNYGNYGWYFDVWGQGTTVTVSS
VL: EIVLTQSPATLSLSPGERATLSCSASSSVSYMHWYQQKPGQAPRLLIYDTSKLASGIPARFSGSGSGTDYTLTISSLEPEDFAVYYCFQGSGYPYTFGQGTKLEIK
